The values below come from paper PMC8543371 (Nature microbiology, 2021).

This assay deals with recombinant SARS-CoV-2 S 6P protein (SARS-CoV-2, Wuhan-Hu-1 reference …, UniProt P0DTC2, stabilised). Nature of the assay: ELISA. For orientation: In an ELISA, binding on a coated surface is turned into a signal by an enzyme label.

Residue numbers refer to the chain shown, from its start. Numbers in names are those of the source.

B1: AZD8895 P99V (heavy chain) (antibody, V domains shown)
VH: QMQLVQSGPEVKKPGTSVKVSCKASGFTFMSSAVQWVRQARGQRLEWIGWIVIGSGNTNYAQKFQERVTITRDMSTSTAYMELSSLRSEDTAVYYCAAVYCSSISCNDGFDIWGQGTMVTVSS
VL: not shown
As for B1, the binding result was “binds”.

B2: AZD8895 D108A (heavy chain) (antibody, V domains shown)
VH: B1 VH with V99P, D108A
VL: not shown
On to B2, for which the binding result was “binds”.

B3: AZD8895 P99N (heavy chain) (antibody, V domains shown)
VH: B1 VH with V99N
VL: not shown
For B3, the binding result is listed as “binds”.

B4: AZD8895 D108E (heavy chain) (antibody, V domains shown)
VH: B1 VH with V99P, D108E
VL: not shown
Consider B4, for which the binding result is given as “binds”.

B5: AZD8895 D108N (heavy chain) (antibody, V domains shown)
VH: B1 VH with V99P, D108N
VL: not shown
With B5, the binding result is listed as “binds”.
